Measured values taken from PMC5379955.

Molecular target: ROD (human) (UniProt P50748)
Assay: AUC

ROD, P50748 1-2209
stoichiometry N: 2
